Source: patent US11819553B2, “Glypican 3 antibodies and conjugates thereof” (Seagen Inc., priority 2018, dated 2023)

Target: T1, hGPC3 (Homo sapiens, UniProt P51654)
T1 construct: endogenous in cells
Assay: Competition binding assay on GPC3-positive cells (flow cytometry, AlexaFluor-488 labeled mGPC3-1)
Conditions: Table 6; competition with labeled mGPC3-1 on GPC3-positive cells; read-out: hGPC3 Binding of hGPC3-1 Antibody Variants EC50
Experimental: One hundred thousand GPC3-positive cells were transferred to 96-well plates and incubated for 1 hour on ice with 3-5 nM AlexaFluor-488 labeled mGPC3-1 and increasing concentrations (from 10 pM to 2 uM) of unlabeled humanized or murine GPC3-1 mAb. Cells were centrifuged, washed 3 times with PBS, and resuspended in 125 μL of a PBS+2% FBS solution. Fluorescence was analyzed using a flow cytometer, and the percent of saturated fluorescent signal was used to determine percent labeled GPC3-1 mAb bound. The EC50 was extrapolated by fitting the data to a sigmoidal dose-response curve with variable slope.

T1 sequence (P51654 25-554): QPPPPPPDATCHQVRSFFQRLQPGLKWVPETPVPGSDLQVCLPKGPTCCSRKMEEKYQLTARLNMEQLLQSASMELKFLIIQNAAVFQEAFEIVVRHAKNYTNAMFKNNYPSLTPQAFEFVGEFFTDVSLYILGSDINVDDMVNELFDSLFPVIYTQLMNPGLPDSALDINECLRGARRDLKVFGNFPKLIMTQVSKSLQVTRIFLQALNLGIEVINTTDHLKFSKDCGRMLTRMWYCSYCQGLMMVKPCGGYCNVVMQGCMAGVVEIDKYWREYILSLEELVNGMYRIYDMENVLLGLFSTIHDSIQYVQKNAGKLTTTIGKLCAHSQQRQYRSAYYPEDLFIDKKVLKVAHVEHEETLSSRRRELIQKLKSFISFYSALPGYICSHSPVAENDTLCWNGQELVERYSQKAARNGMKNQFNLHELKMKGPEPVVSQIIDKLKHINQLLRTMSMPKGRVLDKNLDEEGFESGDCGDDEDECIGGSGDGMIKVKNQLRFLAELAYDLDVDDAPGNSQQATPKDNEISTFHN

EC50: > 0.3 µM
B1: hGPC3-1 HALA: humanized GPC3-1 antibody with heavy chain variable region vHA and light chain variable region vLA (antibody, V domains shown)
VH: QVQLVQSGAEVKKPGASVKVSCKASGYTFTDYEMHWVRQAPGQGLEWIGGIDPETGGTAYNQKFKGRATLTADTSTSTAYMELRSLRSDDTAVYYCARYYSFAYWGQGTLVTVSS
VL: DVVMTQSPLSLPVTLGQPASISCRSSQSIVHSNGNTYLQWFQQRPGQSPRRLIYKVSNRFSGVPDRFSGSGSGTDFTLKISRVEAEDVGVYYCFQVSHVPYTFGQGTKLEIK
